Test results reported in article PMC6827878 (Cell, 2018).

Biological target: Recombinant PP4R3β (His tagged SMEK2) (UniProt Q5MIZ7 1-849)
Assay: ITC

Sequence of Recombinant PP4R3β (His tagged SMEK2) (Q5MIZ7 whole entry): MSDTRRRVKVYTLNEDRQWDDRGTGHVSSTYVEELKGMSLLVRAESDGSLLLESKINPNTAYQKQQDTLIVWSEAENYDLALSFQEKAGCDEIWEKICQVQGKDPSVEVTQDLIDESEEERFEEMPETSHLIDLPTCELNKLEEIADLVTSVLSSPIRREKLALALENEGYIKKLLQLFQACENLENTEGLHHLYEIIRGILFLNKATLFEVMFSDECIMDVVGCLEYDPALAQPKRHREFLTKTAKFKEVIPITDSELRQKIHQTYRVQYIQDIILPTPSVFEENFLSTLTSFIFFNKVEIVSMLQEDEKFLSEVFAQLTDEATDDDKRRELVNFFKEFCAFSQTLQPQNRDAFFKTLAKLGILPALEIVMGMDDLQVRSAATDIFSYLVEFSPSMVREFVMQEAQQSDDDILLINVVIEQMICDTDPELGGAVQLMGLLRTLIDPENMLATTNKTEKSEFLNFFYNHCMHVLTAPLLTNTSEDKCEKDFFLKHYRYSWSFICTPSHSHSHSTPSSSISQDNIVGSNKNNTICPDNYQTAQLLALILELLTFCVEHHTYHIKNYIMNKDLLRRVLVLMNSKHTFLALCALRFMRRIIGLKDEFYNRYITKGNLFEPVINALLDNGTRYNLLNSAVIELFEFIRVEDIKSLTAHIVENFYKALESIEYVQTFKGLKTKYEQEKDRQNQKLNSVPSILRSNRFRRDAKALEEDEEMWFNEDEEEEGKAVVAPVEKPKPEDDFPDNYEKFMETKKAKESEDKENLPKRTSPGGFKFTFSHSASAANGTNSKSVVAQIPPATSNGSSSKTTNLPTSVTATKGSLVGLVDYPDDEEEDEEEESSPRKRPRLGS

B1: GST-CT45A1 (natural protein, human, UniProt Q5HYN5 1-189, looked up)
chain: MTDKTEKVAVDPETVFKRPRECDSPSYQKRQRMALLARKQGAGDSLIAGSAMSKAKKLMTGHAIPPSQLDSQIDDFTGFSKDRMMQKPGSNAPVGGNVTSSFSGDDLECRETASSPKSQREINADIKRKLVKELRCVGQKYEKIFEMLEGVQGPTAVRKRFFESIIKEAARCMRRDFVKHLKKKLKRMI
B1 showed a Kd of 370 ± 30 nM.
